The target of one experiment is hClpX E285A (human) (UniProt O76031). In words: negative stain EM.
For experiment [1], the target named is bortezomib-bound hClpP (human) (UniProt Q16740). As to the kind of experiment: cryo-EM structure.
The target in another experiment is hClpP^dCTE-S153A (human) (UniProt Q16740). In words: cryo-EM structure.

By stoichiometry N is commonly meant the number of molecules, sites or subunits per partner or assembly. Turning to “hClpX E285A (from UniProt O76031 57-633) (enzyme)”, the stoichiometry N with hClpX E285A (human) was found to be 6.

In turn, “bortezomib-bound hClpP (from UniProt Q16740 58-277) (enzyme)” showed a stoichiometry N in experiment [1] of 14.

Regarding “hClpP^dCTE-S153A (from UniProt Q16740 58-277) (enzyme)”, the stoichiometry N with hClpP^dCTE-S153A (human) is 14.

The values are drawn from PMC11601447.
